In test [1] the target is human IgM (Novus, NBP1-97056) (human, UniProt P01871-1 1-453). Nature of the test: ELISA, plate-coated immunoglobulin. On the technique in general: ELISA stands for enzyme-linked immunosorbent assay.
Test [2] has as its target T1, human IgE (human, UniProt P01854 1-428).
T1 construct: written under the same molecule; also called IgE (Abcam ab65866); soluble IgE
In words: SPR (Biacore T200, 37 C), IgE high density (~1400 RU) on protein L, 1:1 fit. As to the method:
(§1) All experiments were done using a Biacore T200 instrument with a CM5 chip at 37° C. except immobilization of Protein L, which was done at 25° C.
(§2) For this study Flow Cell (FC) 1 was used as the reference for FC2, FC3 and FC4. Protein L (15 mg/ml stock concentration) was diluted (1:50 dilution, 0.3 mg/ml diluted concentration) in 10 mM sodium acetate buffer at pH 4.5 and immobilized onto all FCs to a level of ˜14000 RU, using the standard amine coupling chemistry. HBS-P (10 mM Hepes, pH 7.4, 150 mM NaCl, 0.05% v/v surfactant P20) was used as the immobilization running buffer. […] HBS-P was used as the capture running buffer. Overnight kinetics were performed for all analytes in the presence of HBS-P. The flow rate of all analyte solutions was maintained at 50 μL/min. The contact and dissociation times used were 120 seconds and 600 seconds, respectively. Glycine pH 1.5 was injected for 20 seconds for surface regeneration. This regeneration condition takes away all captured ligand. Therefore, fresh ligand solution was captured in the beginning of each injection cycle. Injected analyte concentrations are from 80 nM to 0.01953 nM (four-fold dilutions). All analytes were injected in duplicate.
Background: SPR reads the build-up and loss of mass on a sensor chip optically.

For test [3], the target named is T1, human IgE. In words: SPR (Biacore T200, 37 C), IgE low density (~14 RU) on protein L, 1:1 fit. The method, then: as §1, §2
In test [4] the target is T1, human IgE. In words: ELISA, plate-coated IgE, apparent Kd (one site fit).
For test [5], the target named is human IgE pre-complexed to FCER1A on the surface of human mast cells (human, UniProt P01854-1 1-428). Nature of the test: flow cytometry on IgE-loaded human mast cells. Background: Flow cytometry measures light scatter and fluorescence of single cells or particles in a stream.
Sequence of human IgE pre-complexed to FCER1A on the surface of human mast cells (P01854 other isoform, or with tags, fused parts or gaps): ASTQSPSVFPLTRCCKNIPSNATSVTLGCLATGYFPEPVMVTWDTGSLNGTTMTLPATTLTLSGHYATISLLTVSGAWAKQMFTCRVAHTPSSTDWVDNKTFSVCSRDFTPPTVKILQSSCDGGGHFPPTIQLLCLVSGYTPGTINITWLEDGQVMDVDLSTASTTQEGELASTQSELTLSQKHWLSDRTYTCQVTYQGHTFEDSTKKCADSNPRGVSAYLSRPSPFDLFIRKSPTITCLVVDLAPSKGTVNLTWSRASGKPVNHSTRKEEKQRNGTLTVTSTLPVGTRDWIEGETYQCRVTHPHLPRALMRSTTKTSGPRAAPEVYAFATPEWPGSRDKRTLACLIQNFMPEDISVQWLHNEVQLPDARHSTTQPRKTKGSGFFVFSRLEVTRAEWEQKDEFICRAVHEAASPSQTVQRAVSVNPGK
Test [6] has as its target T1, human IgE. Nature of the test: flow cytometry, blocks binding of 5 nM IgE to FCER1A on human mast cells.
For test [7], the target named is T1, human IgE. Nature of the test: ELISA, blocks binding of 5 nM IgE to coated FCER1A. As to the method:
(§3) The following day, plates were blocked with 1% BSA in PBS for 30 min-1 hour. […] Afterwards, the plates were PBST washed with the plate washer and detected with Peroxidase AffiniPure Donkey Anti-Human IgG, Fcγ fragment specific secondary detection antibody. Room temperature TMB was added and OD650 was measured using the Emax plate reader. […] Room temperature TMB was added and OD650 was measured using the Emax plate reader. The data was plotted and analyzed using GraphPad Prism analysis software.

For test [8], the target named is T1, human IgE. Nature of the test: SPR (Biacore T200, 37 C), IgE medium density (~114 RU) on protein L, 1:1 fit. As to the method: as §1, §2
In test [9] the target is T1, human IgE. In words: SPR, blocks binding of 5 nM IgE to captured FCER1A. The method, then:
as §1
Sensorgrams from the overnight kinetics were plotted for further evaluation.

For test [10], the target named is T1, human IgE. In words: ELISA, human IgE coated. As to the method:
as §3

Test [11] has as its target T1, human IgE. Nature of the test: ELISA, plate-coated IgE.
In test [12] the target is recombinant human anti-hapten dinitrophenol (DNP) IgE (rhIgE) (human, UniProt P01854-1 1-428). Nature of the test: cell-based or functional assay.
Sequence of recombinant human anti-hapten dinitrophenol (DNP) IgE (rhIgE) (P01854 other isoform, or with tags, fused parts or gaps): as above
The target in test [13] is T2, human IgE pre-complexed to FceRII/CD23 on the surface of RPMI 8866 cells (human, UniProt P01854 1-428; P06734 1-321).
T2 construct: also called IgE:CD23 complexes; IgE in complex with CD23
T2 sequence (P01854 other isoform, or with tags, fused parts or gaps, chain 1 of 2): as the sequence (P01854 other isoform, or with tags, fused parts or gaps) above
T2 sequence (P06734 whole entry, chain 2 of 2): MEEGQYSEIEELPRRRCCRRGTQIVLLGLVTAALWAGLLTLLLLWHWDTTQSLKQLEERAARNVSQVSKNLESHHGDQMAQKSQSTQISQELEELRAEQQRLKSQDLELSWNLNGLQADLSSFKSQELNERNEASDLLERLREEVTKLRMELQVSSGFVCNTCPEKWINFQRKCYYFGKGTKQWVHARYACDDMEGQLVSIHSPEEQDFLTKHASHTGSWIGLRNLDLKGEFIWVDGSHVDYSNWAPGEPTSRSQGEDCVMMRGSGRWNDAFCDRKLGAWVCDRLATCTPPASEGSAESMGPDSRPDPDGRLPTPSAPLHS
In words: flow cytometry, IgE-loaded RPMI 8866 cells. The method, then:
The washed cells were diluted to 0.8×10⁶ cells/mL. 50 μL of this cell suspension was then transferred to wells of a round-bottom 96-well assay plate (40 k cells/well). 50 μL of titrated test articles (diluted to 1 μM and titrated across 1:3 in FACS buffer) were added to the RPMI 8866 cells which produced a 2-fold dilution of the antibody concentrations from the titration series. The final starting concentration was 500 nM with a total of 11 points in the titration. […] The cells were incubated with secondary detection antibodies for 20 minutes then washed once, resuspended in 60 μL of FACS Buffer, and analyzed on a NovoCyte 3000 flow cytometer (ACEA Biosciences, Inc.).

Test [14] deals with T1, human IgE. In words: ELISA, plate-coated IgE, apparent Kd (one site fit). The text has this:
The data was plotted and analyzed using GraphPad Prism analysis software.
This is another data set of the same source.

Test [15] addresses T1, human IgE. Nature of the test: SPR, blocks binding of 5 nM IgE to captured FCER1A. The method, then:
(§4) All experiments were done using a Biacore T200 instrument with a CM5 chip at 25° C., Flow Cell (FC) 1 was used as the reference for FC2, and FC3 for FC4.
(§5) Anti-His antibody (1 mg/ml stock) was diluted (1:100 dilution, 0.01 mg/ml diluted concentration) in 10 mM sodium acetate buffer at pH 4.5 and immobilized onto FCs 1 and 2 to a level of ˜14000 RU, using the standard amine coupling chemistry. […] FCER1A (0.4 mg/ml stock concentration) was diluted ([…], ˜0.004 mg/ml diluted concentration) in PBS-P captured onto FC2 to levels of ˜130 RU. PBS-P was used as the capture running buffer. Overnight kinetics were performed for all analytes in the presence of PBS-P. The flow rate of all analyte solutions was maintained at 50 μL/min. The contact and dissociation times used were 120 seconds and 300 seconds, respectively. Glycine pH 1.5 was injected for 20 seconds for surface regeneration. This regeneration condition takes away all captured FCER1A. Therefore, fresh FCER1A was captured in the beginning of each injection cycle. […] All analytes were injected in duplicate. […] Sensorgrams from the overnight kinetics were plotted for further evaluation.
The source holds these as a separate data set.

The target of test [16] is T1, human IgE. In words: ELISA, human IgE coated. The method, then:
as §3
This is another data set of the same source.

The target of test [17] is T3, chimeric cynomolgus monkey IgE (cynomolgus monkey (Macaca fascicularis)).
T3 construct: domain: CH1-4 constant domains; Generated in house in place of commercial cynomolgus IgE; also called cyno IgE
Nature of the test: ELISA, plate-coated cynomolgus IgE, apparent Kd (one site fit).

The target of test [18] is T1, human IgE. In words: ELISA, blocks binding of 5 nM IgE to coated FCER1A. The method, then:
as §3
The source holds these as a separate data set.

Test [19] addresses T1, human IgE. Nature of the test: ELISA, blocks binding of 5 nM IgE to coated FCER2/CD23. The method, then:
as §3

Test [20] deals with T4, recombinant human FCER1A-His (ACRO FCA-H5228) (human, UniProt P12319 26-205).
T4 construct: Bought protein; also called FceRIA; IgE receptor
T4 sequence: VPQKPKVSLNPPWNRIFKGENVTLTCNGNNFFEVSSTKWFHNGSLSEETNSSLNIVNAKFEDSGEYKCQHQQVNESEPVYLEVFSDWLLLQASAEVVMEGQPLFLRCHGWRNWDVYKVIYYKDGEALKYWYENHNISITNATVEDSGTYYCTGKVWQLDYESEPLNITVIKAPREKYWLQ
Nature of the test: SPR, antibody alone injected over captured FCER1A. The method, then: as §4, §5

Test [21] addresses T1, human IgE. Nature of the test: ELISA, plate-coated IgE. This is another data set of the same source.
Test [22] concerns the target human IgG2 (Athensresearch, 16-16-090707-2) (human, UniProt P01859-1 1-326 = IgG part). Nature of the test: ELISA, human IgG2 coated.

Like-named read-outs stand apart in the source and are kept apart here.

T1 sequence (P01854 other isoform, or with tags, fused parts or gaps limits assumed, form in doubt): as the sequence (P01854 other isoform, or with tags, fused parts or gaps) above
Sequence of human IgM (Novus, NBP1-97056) (P01871 other isoform, or with tags, fused parts or gaps): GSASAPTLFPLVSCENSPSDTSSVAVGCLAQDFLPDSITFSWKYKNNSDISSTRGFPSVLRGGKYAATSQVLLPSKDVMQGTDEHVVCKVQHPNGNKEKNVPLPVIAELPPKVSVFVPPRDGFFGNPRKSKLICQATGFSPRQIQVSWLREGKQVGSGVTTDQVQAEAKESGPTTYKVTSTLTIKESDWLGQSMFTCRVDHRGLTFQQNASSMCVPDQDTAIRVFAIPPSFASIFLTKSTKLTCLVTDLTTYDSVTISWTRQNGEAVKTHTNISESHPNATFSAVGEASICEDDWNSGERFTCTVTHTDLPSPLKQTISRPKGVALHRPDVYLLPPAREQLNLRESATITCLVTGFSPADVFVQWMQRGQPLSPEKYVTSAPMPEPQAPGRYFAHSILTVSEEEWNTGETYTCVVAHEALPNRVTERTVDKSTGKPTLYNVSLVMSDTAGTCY

B1: hzB10v40-IgG1 DSELF Fc region (cx13032) (Fc fusion)
chain: EVQLLESGGGEVQPGGSLRLSCVASGLTFSSYNMGWLRQAPGKEREFVGLSGSSSTSTYYAESVKGRFTISRDNAKNTVYLQMTSLRAEDTAVYYCAARRLLSTYWSDRSWDFWGQGTLVTVEPGGGGDKTHTCPPCPAPELLDGPSVFLFPPKPKDTLMISRTPEVTCVVVDVEHEDPEVKFNWYVDGVEVHNAKTKPREEQYNSTYRVVSVLTVLHQDWLNGKEYKCKVSNKAFPAPIEKTISKAKGQPREPQVYTLPPSREEMTKNQVSLTCLVKGFYPSDIAVEWESNGQPENNYKTTPPVLDSDGSFFLYSKLTVDKSRWQQGNVFSCSVMHEALHNHYTQKSLSLSPGK
notes: hzB10v40 VHH + GGGG linker + IgG1 DSELF Fc; described as bivalent; also called hzB10v40-DSELF; hzB10v40-IgG DSELF Fc
As usually defined, the koff is a measure of how fast the partners let go of each other. Usually kon stands for the second-order rate constant of association. Broadly, the IC50 is the concentration that gives 50% inhibition. With B1, the binding result is given as “no binding” in [1] and “no binding (tested: titrated from 1000 nM)” in test [5]. Moreover, the Kd came out at 1.1 nM with human IgE [2]; 0.6 nM in the test with human IgE [3]; 0.266 nM with human IgE [4]; 0.6 nM in the test with human IgE [8]; 0.11 nM with human IgE [10]. The koff worked out at 0.000258 s⁻¹ with human IgE [2], 0.000449 s⁻¹ in the test with human IgE [3] and 0.000207 s⁻¹ with human IgE [8]. Besides, the kon in the test with human IgE [2] stood at 242000 M⁻¹ s⁻¹; in the test with human IgE [3], 422000 M⁻¹ s⁻¹; with human IgE [8], 373000 M⁻¹ s⁻¹. Also, the half-inhibitory concentration (IC50) is 0.61 nM with human IgE [6], 7.63 nM with human IgE [7] and about 3.4 nM with human IgE [9]. Further, the Bmax with human IgE [10] was determined as 0.808 OD 650. For the same molecule, the “Bmax (OD 650 nm)” value in the test with human IgE [11] is 0.873 OD 650 nm. Further, the “Activation IC50 (nM), CD63 on mast cells” value in test [12] is 3.09 nM.

B2: cx10710, comprising IgG1 SELF Fc (antibody, V domains shown)
VH: QVQLQESGPGLVKPSETLSLTCAVSGYSITSGYSWNWIRQPPGKKLEWIGSITYDGSSNYNPSLKSRVTISRDTSKNQFSLKLSSVTAADTAVYYCARGSHYFGHWHFAVWGAGTLVTVSS
VL: DIQLTQSPSSLSASVGDRVTITCRASQSVDYDGDSYMNWYQQKPGQPPKLLIYAASYLGSEIPARFSGSGSGTDFTLTISSLQPEDFATYYCQQSHEDPYTFGAGTKLEIKR
notes: Conventional full length anti-IgE antibody with IgG1 SELF Fc; also called conventional antibody comparator; 710 (a derivative of Omalizumab); copies: 2 + 2
Take B2: the Bmax in test [13] turned out to be 15000 Mean APC-A; with human IgE [16] it was 1.2 OD 650; with human IgE [10], 0.95 OD 650. Moreover, the Kd in test [13] came to 6.17 nM; with human IgE [14], 0.102 nM; with human IgE [16], 0.123 nM; in test [17], 0.288 nM; with human IgE [4], 0.127 nM; with human IgE [10] it was 0.0585 nM. For the same molecule, the IC50 with human IgE [15] was about 2.1 nM; in the test with human IgE [18], 2.71 nM; with human IgE [19], 0.604 nM; in the test with human IgE [7], 5.59 nM; in the test with human IgE [9], about 3.2 nM. Further, the figures for the binding result in [20], in [5] and in test [22] were “no binding (tested: 200 nM)”, “no binding (tested: titrated from 1000 nM)” and “no binding (tested: 250 nM)”, respectively. For the same molecule, the “Bmax (OD 650 nm)” value in the test with human IgE [21] turned out to be 0.814 OD 650 nm; in the test with human IgE [11] it was 0.946 OD 650 nm. Also, the “Activation IC50 (nM), CD63 on mast cells” value in test [12] is 1.93 nM.

Values taken from patent US20250163186A1 (PHYLAXIS BIOSCIENCE, published 2025).
